Measured values as given in patent US8026218.
Like-named read-outs stand apart in the source and are kept apart here.

Experiments:
[1] = target: µ opioid receptor of the guinea pig isolated ileum (guinea pig) (UniProt P97266); test: cell-based or functional assay
[2] = target: human NK1 receptor (human) (UniProt P25103); test: competition vs [3H]Substance P, hNK1 CHO cell membranes
rat NK1 receptor (rat) [3] = target: rat NK1 receptor (rat) (UniProt P14600); test: competition vs [3H]Substance P, rNK1 CHO cell membranes
Sequence of rat NK1 receptor (rat) (P14600 whole entry): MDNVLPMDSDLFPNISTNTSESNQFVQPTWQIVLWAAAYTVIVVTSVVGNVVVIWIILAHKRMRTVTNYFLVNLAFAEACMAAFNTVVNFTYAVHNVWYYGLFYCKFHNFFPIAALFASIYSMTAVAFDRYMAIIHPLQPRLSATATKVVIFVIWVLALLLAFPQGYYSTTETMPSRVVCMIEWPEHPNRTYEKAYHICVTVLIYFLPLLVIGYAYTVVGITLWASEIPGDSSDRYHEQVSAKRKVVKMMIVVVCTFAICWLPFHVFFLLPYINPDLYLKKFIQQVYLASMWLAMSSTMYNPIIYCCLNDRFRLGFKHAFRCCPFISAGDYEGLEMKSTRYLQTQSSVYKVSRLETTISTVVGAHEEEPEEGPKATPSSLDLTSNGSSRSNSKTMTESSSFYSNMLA

[4] = target: human δ opioid receptor (human) (UniProt P41143); test: cell-based or functional assay
Sequence of human δ opioid receptor (human) (P41143 whole entry, stated change not applied): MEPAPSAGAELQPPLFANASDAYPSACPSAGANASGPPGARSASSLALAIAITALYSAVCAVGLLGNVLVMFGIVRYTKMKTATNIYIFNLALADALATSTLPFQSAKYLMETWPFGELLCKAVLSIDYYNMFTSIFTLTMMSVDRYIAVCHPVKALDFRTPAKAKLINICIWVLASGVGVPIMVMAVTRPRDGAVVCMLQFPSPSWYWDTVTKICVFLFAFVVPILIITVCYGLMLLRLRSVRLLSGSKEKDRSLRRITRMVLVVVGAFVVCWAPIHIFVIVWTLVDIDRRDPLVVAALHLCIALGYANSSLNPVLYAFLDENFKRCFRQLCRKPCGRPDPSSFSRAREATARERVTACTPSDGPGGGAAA

[5] = target: rat µ opioid receptor (rat) (UniProt P33535); test: cell-based or functional assay
Sequence of rat µ opioid receptor (rat) (P33535 whole entry): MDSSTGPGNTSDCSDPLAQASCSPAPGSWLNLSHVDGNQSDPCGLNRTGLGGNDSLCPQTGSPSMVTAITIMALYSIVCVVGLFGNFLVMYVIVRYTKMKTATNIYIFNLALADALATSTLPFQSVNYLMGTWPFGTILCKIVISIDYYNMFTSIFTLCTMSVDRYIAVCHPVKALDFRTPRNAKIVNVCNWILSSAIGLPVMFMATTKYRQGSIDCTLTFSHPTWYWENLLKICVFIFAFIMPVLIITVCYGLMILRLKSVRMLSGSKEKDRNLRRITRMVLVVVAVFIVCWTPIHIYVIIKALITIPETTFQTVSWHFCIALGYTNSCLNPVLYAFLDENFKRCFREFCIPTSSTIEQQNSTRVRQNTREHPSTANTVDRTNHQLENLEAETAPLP

[6] = target: rat µ opioid receptor (rat) (UniProt P33535); test: radioligand competition vs [3H]DAMGO, membranes of rMOR cells
[7] = target: human δ opioid receptor (human) (UniProt P41143); test: radioligand competition vs [3H]DPDPE, membranes of hDOR cells
[8] = target: human NK1 receptor (human) (UniProt P25103); test: radioligand competition vs [3H]substance P, membranes of hNK1 CHO cells
rat NK1 receptor (rat) [9] = target: rat NK1 receptor (rat) (UniProt P14600); test: radioligand competition vs [3H]substance P, membranes of rNK1 CHO cells
[10] = target: rat µ opioid receptor (rat) (UniProt P33535); test: competition vs [3H]DAMGO, rMOR cell membranes
[11] = target: human δ opioid receptor (human) (UniProt P41143); test: competition vs [3H]DPDPE, hDOR cell membranes
[12] = target: rat µ opioid receptor (rat) (UniProt P33535); test: cell-based or functional assay; remark: listed apart in the source
[13] = target: rat µ opioid receptor (rat) (UniProt P33535); test: radioligand saturation, rMOR membranes
[14] = target: δ opioid receptor of the mouse isolated vas deferens (mouse) (UniProt P32300); test: cell-based or functional assay
Sequence of δ opioid receptor of the mouse isolated vas deferens (mouse) (P32300 whole entry, stated change not applied): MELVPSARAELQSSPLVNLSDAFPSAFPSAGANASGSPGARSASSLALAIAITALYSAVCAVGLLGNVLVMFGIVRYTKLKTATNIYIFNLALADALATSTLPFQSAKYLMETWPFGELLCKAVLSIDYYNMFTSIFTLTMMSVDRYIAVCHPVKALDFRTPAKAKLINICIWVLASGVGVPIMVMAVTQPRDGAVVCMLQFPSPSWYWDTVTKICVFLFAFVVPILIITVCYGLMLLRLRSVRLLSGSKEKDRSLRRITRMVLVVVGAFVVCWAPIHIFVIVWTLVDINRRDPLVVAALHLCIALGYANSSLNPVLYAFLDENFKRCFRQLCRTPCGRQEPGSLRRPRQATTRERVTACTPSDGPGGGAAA

[15] = target: guinea pig NK1 receptor (guinea pig) (UniProt P30547); test: cell-based or functional assay
Sequence of guinea pig NK1 receptor (guinea pig) (P30547 whole entry): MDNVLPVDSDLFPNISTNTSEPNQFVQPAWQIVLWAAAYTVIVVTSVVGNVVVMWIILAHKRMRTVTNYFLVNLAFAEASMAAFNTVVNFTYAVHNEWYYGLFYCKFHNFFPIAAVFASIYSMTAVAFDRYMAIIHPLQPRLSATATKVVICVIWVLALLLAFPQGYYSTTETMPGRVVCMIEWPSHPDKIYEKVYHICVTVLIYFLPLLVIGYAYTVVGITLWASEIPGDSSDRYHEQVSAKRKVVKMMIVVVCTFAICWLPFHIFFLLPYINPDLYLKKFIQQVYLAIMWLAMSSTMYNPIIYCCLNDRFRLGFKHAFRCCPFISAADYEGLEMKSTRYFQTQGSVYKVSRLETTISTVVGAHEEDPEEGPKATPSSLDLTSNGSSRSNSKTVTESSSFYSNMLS

[16] = target: human δ opioid receptor (human) (UniProt P41143); test: radioligand saturation, hDOR cell membranes
[17] = target: human δ opioid receptor (human) (UniProt P41143); test: radioligand saturation, hDOR membranes

Sequence of human NK1 receptor (human) (P25103 whole entry): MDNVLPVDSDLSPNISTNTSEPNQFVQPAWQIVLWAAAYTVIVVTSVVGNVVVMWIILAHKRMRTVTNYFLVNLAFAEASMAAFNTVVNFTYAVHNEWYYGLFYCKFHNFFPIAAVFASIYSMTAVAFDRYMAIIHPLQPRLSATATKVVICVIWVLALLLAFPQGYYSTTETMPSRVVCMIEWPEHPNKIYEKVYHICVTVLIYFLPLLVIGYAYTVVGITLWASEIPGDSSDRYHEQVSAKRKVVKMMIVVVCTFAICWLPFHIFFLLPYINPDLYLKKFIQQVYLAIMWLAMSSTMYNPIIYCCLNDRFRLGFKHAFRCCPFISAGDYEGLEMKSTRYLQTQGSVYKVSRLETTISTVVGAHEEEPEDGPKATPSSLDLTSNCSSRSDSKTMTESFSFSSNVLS
Sequence of µ opioid receptor of the guinea pig isolated ileum (guinea pig) (P97266 whole entry): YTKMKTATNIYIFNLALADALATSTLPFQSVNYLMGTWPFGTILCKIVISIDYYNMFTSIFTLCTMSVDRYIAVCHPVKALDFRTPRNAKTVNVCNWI

In the case of “Tyr-Gly-Trp-O-3′,5′(CF3)2-Bzl (NP42) (peptide)”, the GPI µ-agonist IC50 [1] is reported as 2.6 % at 1 µM.
Tyr-Gly-Trp-O-3′,5′(CF3)2-Bzl (peptide) gave a Ki [2] of 3 pM and a Ki (rat NK1 receptor (rat) [3]) of 0.36 nM.
“TyrDAlaGlyPheMetCLeuLeuTrpOBn(CF3)2 (TY021) (peptide)” gave a GTP binding hDOR EC50 [4] of 0.26 nM, a GTP binding hDOR Emax [4] of 41.1% and a GTP binding rMOR EC50 [5] of 53.8 nM. For the same substance, the GTP binding rMOR Emax [5] was 51.4%, the Ki [6] was 112 nM and the Ki [7] was 5 nM. For the same substance, the Ki [8] was 0.066 nM and the Ki (rat NK1 receptor (rat) [9]) was 7.75 nM.
With “Tyr[DCysGlyPheDCys]ProLeuTrpNHBn(CF3)2 (TY037) (peptide)” the GTP binding hDOR EC50 [4] was 98.2 nM, the GTP binding hDOR Emax [4] was 26% and the GTP binding rMOR EC50 [5] was 52.9 nM. The GTP binding rMOR Emax [5] was 8%, the Ki [6] was 51.5 nM and the Ki [7] was 7.8 nM. For the same substance, the Ki (rat NK1 receptor (rat) [9]) was 45.5 nM.
In the case of “Tyr-D-Ala-Trp-O-3′,5′(CF3)2-Bzl (peptide)”, the GTP EC50 [4] is reported as 90.9 nM, the GTP EC50 [5] is reported as 168 nM and the Ki [10] is reported as 178 nM. For the same substance, the Ki [11] was 100 nM, the Ki [2] was 4 pM and the Ki (rat NK1 receptor (rat) [3]) was 2.94 nM.
“[3H]-[D-Ala2,NMePhe4,Gly5-ol]enkephalin (peptide)” gave a [35S]GTP-γ-S binding LogEC50 [12] of -7.44, a [35S]GTP-γ-S binding EC50 [5] of 37 nM and a [35S]GTP-γ-S binding Emax [5] of 150%. It also gave a [35S]GTP-γ-S binding LogEC50 [5] of -7.4, a [35S]GTPγS binding EC50 [5] of 37 nM and a [35S]GTPγS binding Emax [5] of 150%. The [35S]GTPγS binding LogEC50 [5] was -7.4 and the Kd [13] was 0.5 nM.
For “DMT-D-Ala-Trp-O-3′,5′(CF3)2-Bzl (peptide)”, the GTP EC50 [4] was 11.5 nM, the GTP EC50 [5] was 1.6 nM and the Ki [10] was 0.3 nM. The Ki [11] was 0.8 nM, the Ki [2] was 16 pM and the Ki (rat NK1 receptor (rat) [3]) was 0.28 nM.
Biphalin (peptide) showed an MVD (δ) IC50 [14] of 2.7 nM and an MVD (δ) opioid agonist IC50 [14] of 2.7 nM.
Work on “Tyr-D-Ala-Trp-O-3′,5′(CF3)2-Bzl (NP43) (peptide)” yielded a GPI SP-antagonist Ke [15] of 49.4 nM, a GPI µ-agonist IC50 [1] of 3.3 % at 1 µM and an MVD δ-agonist IC50 [14] of 5.5 % at 1 µM.
Work on “Tyr-D-Ala-Gly-pFPhe-O-3′,5′(CF3)2-Bzl (NP62) (peptide)” yielded a GPI SP-antagonist Ke [15] of 51.8 nM and an MVD δ-agonist IC50 [14] of 184 nM.
Work on c[D-Pen2,D-Pen5]enkephalin (peptide) yielded a Kd [16] of 0.45 nM.
Work on “[3H]-c[D-Pen2,D-Pen5]enkephalin (peptide)” yielded a [35S]GTP-γ-S binding EC50 [4] of 1.6 nM, a [35S]GTP-γ-S binding Emax [4] of 69% and a [35S]GTP-γ-S binding LogEC50 [4] of -8.8. For the same substance, the [35S]GTPγS binding EC50 [4] was 1.6 nM, the [35S]GTPγS binding Emax [4] was 69% and the [35S]GTPγS binding LogEC50 [4] was -8.8. For the same substance, the Kd [17] was 0.45 nM.
“DMT-D-Ala-Trp-O-3′,5′(CF3)2-Bzl (NP48) (peptide)” was tested, and the MVD δ-agonist IC50 [14] was 408 nM.
